Source: patent US12077763B2, “RNA-based control of powdery mildew” (Greenlight Biosciences, Inc., priority 2021, dated 2024)

Tests used:
[1] = test system: GS1885, GS3336, GS1875, GS1879 transcripts; test: Gene specific qRT-PCR of GS1885, GS3336, GS1875, GS1879 transcripts in leaf discs (Example 3); type: in vivo, E. necator; settings: six-days post inoculation, FIG. 4
Procedure: FIG. 4. Gene specific qRT-PCR analysis of GS1885, GS3336, GS1875, GS1879 transcripts at 6-dpi in leaf discs. The 2-ΔΔCT method was used to analyze the relative changes in gene expression. Gene expression was normalized to the untreated control. GS145 (a non-target dsRNA sequence) was also included as control. Asterisks denote significant differences compared to untreated control (UTC). Statistical comparisons between treatments were performed with ANOVA, followed by Welch's analysis.
qRT-PCR was performed to validate the effect of exogenous dsRNA on the expression of selected targeted genes for which activity of dsRNA had been shown by leaf assay (as described in Example 2). Samples were treated with dsRNA, inoculated after 24 hours and six leaf discs per treatment were collected at six-days post inoculation (dpi) for further analysis.

E. necator = test: Leaf disc assay, dry inoculum (settling tower), decrease in disease severity / hyphal growth (Example 2); settings: decrease in disease severity (hyphal growth) relative to untreated control, value ± SE; for % decrease =/− SE TP1: time point 1 (untreated control hyphal growth ≥50%); for % decrease =/− SE TP2: time point 2

Row | Molecule | gene silencing in E. necator by sprayed dsRNA / gene expression levels vs untreated control [1] | % decrease =/− SE TP1 (E. necator) | % decrease =/− SE TP2 (E. necator)
1 | GS3336: sprayed dsRNA for which activity had been shown by leaf assay; presumably listed in Table 1B (nucleic acid) sense: AAUGAUGUAAGCUCCAUGGGAAUUCAUAACCUGAGUGAGCAUCAAUAGCUUGGAAUAGUCGACAGAUAAUCCAACAAUACAUCGUAACUAAGUGAAGAUUGCCAGUUAUCAGACACCAUACAGUUGGCAUUAAGACUGUUCCUGCGCCAAGAACCAUUGUUUCUAUUGGUGAAGCAUAUUCAGCUGCUAGUCCGAAGGGUGCAGAGUAAUGAUGAUGUAUUUUAUGAAUAUGUUUGUAGAAAGGACCCCAAUGAAAUAAUCGAUGCAUCCAAUAAUGCCACGUAUCUUCCAACACGAAAAAGAAAGCAAUCUGAAGACACAUAGUUUUUAAUGAUGGAAAUGGGACACCAACAUCCAUACCACAAGCCUUUGUCAAUGGAUGAAAAAGCCAAAUUUGA antisense: UCAAAUUUGGCUUUUUCAUCCAUUGACAAAGGCUUGUGGUAUGGAUGUUGGUGUCCCAUUUCCAUCAUUAAAAACUAUGUGUCUUCAGAUUGCUUUCUUUUUCGUGUUGGAAGAUACGUGGCAUUAUUGGAUGCAUCGAUUAUUUCAUUGGGGUCCUUUCUACAAACAUAUUCAUAAAAUACAUCAUCAUUACUCUGCACCCUUCGGACUAGCAGCUGAAUAUGCUUCACCAAUAGAAACAAUGGUUCUUGGCGCAGGAACAGUCUUAAUGCCAACUGUAUGGUGUCUGAUAACUGGCAAUCUUCACUUAGUUACGAUGUAUUGUUGGAUUAUCUGUCGACUAUUCCAAGCUAUUGAUGCUCACUCAGGUUAUGAAUUCCCAUGGAGCUUACAUCAUU | Induced Gene Silencing | 72 ± 2% | 57 ± 4%
2 | GS1885: dsRNA trigger SEQ ID NO 213; gene target ribosomal processing RNA binding nucleolar protein (nucleic acid) TACGGATCGATAGACGGGTGAGTGAAAGATGAAGTGCAGGATTTTTCTCTATAAGTTTCTTACGTTGTAGCGCCGAAGCTTCTCTAAGTTTAATCTCTGATGGAGATAAAACGTTATATATAGGCGTACCAACAGCAATTGTCCCCTCTTTAAGTAGATATAACTTTCGCTTATCTTTGTCTCGGTCAGTGCGGAAGTTTGTCCCAGCTTCTGTAAGTTTTACAGCTTTTTCTCGATTAACTGCTCTTGACACTTGAAGTACGCGACCTTCTATTGTGTATAAGCCATTCTTATCAGCAGTTTCATCCTCTAAAATAGAGTTTTTAGCTTTAACAGCGTTTGCACCACTTTTGAAGGTACGAGGTGCACCATGGTAACAAGAGTCCGCATCTTCTTGTCTATAGAAGCAAACAAAGCCAGTGCCTTTAGGTCGACCAGTATTATTGTCTATGACCA | Induced Gene Silencing | 67 ± 4% | 58 ± 5%
3 | GS1875: dsRNA trigger SEQ ID NO 168; gene target Mitochondrial RNA-splicing protein MRS3 (nucleic acid) AAAGCTCCAGCTGAGCAATGAGTAAGTGGATCGTAAGCCTTTGATGGGTTCAGAAATGTAGATACAGATTCGTATGCGAGAAGTTGAAGTGCTGTAAATGGTACAGTCATGGAAAGAGTAGTTGGATACGAGATATAGAAGGCTGTGATGCCTTCAGTGCGATAGATATAGCGGGCACAATCACTCAGTGATCTATAAATTTTGCGAGAGTTATGCATTTGCATTCTTTGCTTTATTACATCAAATGGGTTCATTAAAGCATCACTTGCAATTGTTGCGCATGCCCCACTTGTAATGCGCATGCCCCACTTGTAACTATGTAGCTTCAGTAAGTGCTCAATATCAAGGATAAATTGGCGATGTAGTCATATATGTCTGATTCCTTAATCAAAATTCTTAATACAGACCTGCTGCAATAGGATGATGAGCTCCTGTTTGATTACCTCCCATGAGATGTTTGACAGCTTCATAGGTTGCAAAATA | Induced Gene Silencing | 55 ± 4% | 41 ± 5%
4 | ES48: dsRNA trigger SEQ ID NO 111; gene target Hypotethical effector (nucleic acid) DNA: AGTAGCAGCGGACATCGCCGACGGCCCTACACTGTCAGGGCTACCTGGGGTTGCAGATTTCGACTTGTCTTCAGCGTCCTCCCCAAGTCTCGAGAAAAGACTTTGTTTTAGACGAGGATGCAATAAAAAATCTAAACACGCATCAGGCTTCCAATGTAAGAAGAAACATTTCAGTCTGGCGGCGGTAGAAAAAGCAAAAGCCGTAGCCTGCGCAAAGATCAAAGAAAACAAGCAGCGCAATGCCTTTCCTGCTCTTTACACCGCAACCGATTTCGAAACTCCCGGGCCTTATCTAGAATGGCCAATCAAGCGCAATGGAAGATTTTGGAATAATTTGAGAAGAGGCCGTTACCGCATCATCCTAACCGAAAACTGCAAAGTTGTCGGTGCTGTGATCCGGAAAAGCAATGGTTCATACCGCACATGCAAGAAACTGAGCGAAAAAGATGAAGATGAAGTTGATGATGATGATGAAAAAGAA | – | 15 ± 6% | 1 ± 3%
5 | GS1879: dsRNA trigger SEQ ID NO 142; gene target Chaperone-dependent E3 ubiquitin protein ligase (nucleic acid) CTGAATTTCTGAGTTCCGCTATCTTTTTATCTCTTCTTTCCTCAAGTCCGTATTGAAGTTCGTGAGATAATTTACTTCGATTCATCTCTCTTTTACTTTCTTGTGCCTCCCATCCCATTTTTTTACATTTCATCACTAACTCAGTTATTGGCTCTATACTGTTAGCCCCTTTTGTTCCTGCATACATCTCTTCCATACAAAATTTTCGCGCAGTCTTTGCAGATTGAAATGCCTCATCGTAATAATTTAGCGCCAGTTGTGCTTGGGCCAGTTGGAAATATGCTTTCATATTTGATGGGAGGAGACGTAAAGCGCATTGGGCATCTTCAATTACACGATGATGAAGAGATAATTTAAGAAGTACCATTGCACGATTTGTATAAAGTACTGGATTTTGGGGATCACAATTGATCGCTTTTGTGTAAAACATTTCAGCACGCGTATAATCACCAGACTTAAAATATTTATTTC | Induced Gene Silencing | 49 ± 5% | 41 ± 7%
6 | GS2679 (nucleic acid) sense: CCGCCAUACUGGGGGAUUAGAACCUUGUCGCCAACCUUGACAUUACAAGACACUCUGUUUCCAUCUUUGCCAACUGCACCAGGUCCUACAGCUAUAACGUGGGCUUCAUUGAGUUCCUUGACACUUUUUUCGGGAAGAAAAAUGCCACUCGCAGUCUUUGCUUCUGCCUUCACUCGUUGUACAAGAACCCGGUCAAGUAAAGGAGCAAGGGACUUGAUUGAUUUGAGUGUUGAAGCCAUGUUAGAGGAUAACGGACAGUGAAUUAUAAAGACUGUGCAAUAAAAUUGGUUUAAGAGAAAAGAUCUUUGAAGUCGCGUUACGUUAAAGUCGCUAUCUGUU antisense: AACAGAUAGCGACUUUAACGUAACGCGACUUCAAAGAUCUUUUCUCUUAAACCAAUUUUAUUGCACAGUCUUUAUAAUUCACUGUCCGUUAUCCUCUAACAUGGCUUCAACACUCAAAUCAAUCAAGUCCCUUGCUCCUUUACUUGACCGGGUUCUUGUACAACGAGUGAAGGCAGAAGCAAAGACUGCGAGUGGCAUUUUUCUUCCCGAAAAAAGUGUCAAGGAACUCAAUGAAGCCCACGUUAUAGCUGUAGGACCUGGUGCAGUUGGCAAAGAUGGAAACAGAGUGUCUUGUAAUGUCAAGGUUGGCGACAAGGUUCUAAUCCCCCAGUAUGGCGG | – | 25 ± 3% | 24 ± 5%
